Read-outs that look alike come from different tables or passages of the source. Blank lines part the entries; values can stand above or below the molecule they belong to.
How the values were obtained:
[1] = molecular target: recombinant trBcl-2L1 (Trichoplax adhaerens Bcl-2-like protein 1), lacking the 33 N-terminal and 29 C-terminal residues (Trichoplax adhaerens); assay: ITC
[2] = molecular target: recombinant trBcl-2L2 (Trichoplax adhaerens Bcl-2-like protein 2), lacking the 7 N-terminal and 34 C-terminal residues (Trichoplax adhaerens); assay: ITC
Flag-tagged trBcl-2L1 = molecular target: T1, Flag-tagged trBcl-2L1 (Trichoplax adhaerens, UniProt A0A1B1IJP0 1-215); assay: FRET or BRET
T1 sequence (looked up): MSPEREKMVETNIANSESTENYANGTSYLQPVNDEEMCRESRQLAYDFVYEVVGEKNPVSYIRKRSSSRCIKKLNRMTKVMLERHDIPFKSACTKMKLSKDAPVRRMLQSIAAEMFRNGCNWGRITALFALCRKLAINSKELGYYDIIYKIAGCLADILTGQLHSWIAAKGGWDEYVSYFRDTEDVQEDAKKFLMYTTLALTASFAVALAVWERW

Flag-tagged trBcl-2L2 = molecular target: T2, Flag-tagged trBcl-2L2 (Trichoplax adhaerens, UniProt A0A1B1IJN9 1-211); assay: FRET or BRET
T2 sequence (looked up): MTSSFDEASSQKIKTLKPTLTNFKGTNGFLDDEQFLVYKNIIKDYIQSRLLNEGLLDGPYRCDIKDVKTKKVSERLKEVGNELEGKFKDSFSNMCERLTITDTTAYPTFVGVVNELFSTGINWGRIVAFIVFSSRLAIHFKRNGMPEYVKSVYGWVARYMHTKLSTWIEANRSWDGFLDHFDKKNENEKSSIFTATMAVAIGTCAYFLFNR

[3] = molecular target: recombinant trBcl-2L1 (Trichoplax adhaerens Bcl-2-like protein 1), lacking the 33 N-terminal and 29 C-terminal residues (Trichoplax adhaerens); assay: ITC; remark: listed apart in the source
[4] = molecular target: recombinant trBcl-2L2 (Trichoplax adhaerens Bcl-2-like protein 2), lacking the 7 N-terminal and 34 C-terminal residues (Trichoplax adhaerens); assay: ITC; remark: listed apart in the source
[5] = molecular target: recombinant human Bcl-2 (residues 10 to 203) (human, UniProt P10415 10-203); assay: ITC
[6] = molecular target: recombinant human Bcl-xL (residues 1 to 209, Δloop45 to 84) (human, UniProt Q07817-1 1-209, Δloop45 to 84); assay: ITC
[7] = molecular target: T3, recombinant human Bcl-w (residues 9 to 152) (human, UniProt Q92843 9-152); assay: ITC
T3 sequence (looked up): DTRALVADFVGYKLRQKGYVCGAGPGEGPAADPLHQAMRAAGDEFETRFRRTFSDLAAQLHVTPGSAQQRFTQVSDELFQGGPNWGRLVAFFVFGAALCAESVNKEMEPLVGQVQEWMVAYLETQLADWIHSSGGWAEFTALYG

[8] = molecular target: recombinant human Mcl-1 (residues 171 to 320) (human, UniProt Q07820 171-320); assay: ITC
[9] = molecular target: T4, recombinant human A1/Bfl-1 (residues 1 to 151) (human, UniProt Q16548 1-151); assay: ITC
T4 sequence (looked up): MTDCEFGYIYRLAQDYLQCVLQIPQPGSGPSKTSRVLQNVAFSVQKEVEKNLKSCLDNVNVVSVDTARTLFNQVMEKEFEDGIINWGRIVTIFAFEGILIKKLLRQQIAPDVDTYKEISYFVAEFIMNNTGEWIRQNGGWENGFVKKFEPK

recombinant human Mcl-1 (residues 171 to 320), sequence (Q07820 171-320): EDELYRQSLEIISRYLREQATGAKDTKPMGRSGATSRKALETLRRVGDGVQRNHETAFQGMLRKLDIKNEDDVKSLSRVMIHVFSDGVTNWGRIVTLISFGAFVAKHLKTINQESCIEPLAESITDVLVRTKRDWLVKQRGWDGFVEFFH
recombinant human Bcl-2 (residues 10 to 203), sequence (P10415 10-203): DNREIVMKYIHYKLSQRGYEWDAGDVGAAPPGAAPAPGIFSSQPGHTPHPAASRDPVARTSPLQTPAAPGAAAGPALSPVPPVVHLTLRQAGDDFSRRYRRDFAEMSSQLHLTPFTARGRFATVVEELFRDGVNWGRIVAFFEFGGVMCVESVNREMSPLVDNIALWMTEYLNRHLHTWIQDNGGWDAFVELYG

Kd [1]: 7 nM
Kd [2]: 15 nM
Molecule: hsBax BH3 peptide

Kd [1]: 124 nM
Kd [2]: 170 nM
Molecule: hsBid BH3 peptide

Kd [1]: 83 nM
Kd [2]: 41 nM
Molecule: hsBim BH3 peptide

Kd [1]: 5 nM
Kd [2]: 81 nM
Molecule: hsPuma BH3 peptide

FRET efficacy (Flag-tagged trBcl-2L1): 11.2%
FRET efficacy (Flag-tagged trBcl-2L2): 5.45%
B1: EGFP-tagged trBak (natural protein, Trichoplax adhaerens, UniProt A0A1B1IJN7 1-251, looked up)
chain: MSSTITIAESLENGENNDEQEEANTSRSQFRVTRAQVIRRQLSANPAHLPVSEQEVINETSSIFRSFVVESYQAERDGGIIAEEVRSFADQVQSSSNQTITPSSPTSEIGRHLAQLGDSYSVRFQNEFRLMITHLDINPGTAYRTFAGVARRLFRDGISWRRIVTLMAFGYQIAIDVMRSGVQGFLSRICNFIVRFISGEHIANWIARQGGWRAARYEGLASPGWPAIIGVATAAAASVFGVLWLSGYFRE

Kd [3]: 1430 nM
Kd [4]: 563 nM
Kd [5]: 45 nM
Kd [6]: 197 nM
binding result [7]: binds
binding result [8]: binds
Kd [9]: 13 nM
Molecule: PSSPTSEIGRHLAQLGDSYSVRFQNE [trBak BH3 peptide]

FRET efficacy (Flag-tagged trBcl-2L1): 5.84%
FRET efficacy (Flag-tagged trBcl-2L2): 2.81%
B2: EGFP-tagged trBax (natural protein, Trichoplax adhaerens, UniProt A0A1B1IJP1 1-241, looked up)
chain: MADFTYVLITRSISTIFSSSCLIAMAHVKSVTSTPTTTTTTTTQSCPRREENLKEIAAESKKLFLDFIADRSAKDGQDQGCISQLTREHNELQIEPTSPTIQVARTIRQIGDELDSDPHLNGLLHKLHVTSSTAYSTFRRVAMRIFQDGQFNWGRIITLFFFGYRLTIRVLSESPIVEMIISWIARFIYEICSFWIAESGGWDAITQYIQQADWKNKYTLGLIAVGVLVTAFVTWQRYNSS

Kd [3]: 426 nM
Kd [4]: 728 nM
Kd [5]: 3060 nM
Kd [6]: 877 nM
Kd [7]: 767 nM
Kd [8]: 67 nM
Kd [9]: 135 nM
Molecule: IEPTSPTIQVARTIRQIGDELDSDPHLN [trBax BH3 peptide]

From article PMC7527217 (Science Advances, 2020)
